Consider 6 proteins from paper doi:10.1101/2023.02.25.529910 (bioRxiv, 2023).

The series “crystal structure” deals with the molecule itself. In words: crystal structure.
The series “SEC” deals with the molecule itself. In words: SEC.

B1: gpVdL-DEL (bacteriophage P2 gpV residues 97-196 plus an exogenous Leu197, Apex domain deleted) (domain or fragment)
chain: ADALHIRFPDGAVIEYEPETSALTVSGIKTASVTASGSVTATVPVVMVKASTRVTLDTPEVVCTNRLITGTLEVQKGGTMRGNIEHTGGELSSNGKVLHTL
As to B1, the binding result in the series “crystal structure” was “binds”.

B2: gpV-AA (full-length bacteriophage P2 gpV, H197A/H199A) (natural protein)
chain: MNTLANIQELARALRNMIRTGIIVETDLNAGRCRVQTGGMCTDWLQWLTHRAGRSRTWWAPSVGEQVLILAVGGELDTAFVLPGIYSGDNPSPSVSADALHIRFPDGAVIEYEPETSALTVSGIKTASVTASGSVTATVPVVMVKASTRVTLDTPEVVCTNRLITGTLEVQKGGTMRGNIEHTGGELSSNGKVLHTAKAPGDSGGTTGSPL
As to B2, the binding result in “SEC” is recorded as “binds”.

B3: gpV-FF (full-length bacteriophage P2 gpV, H197F/H199F) (natural protein)
chain: MNTLANIQELARALRNMIRTGIIVETDLNAGRCRVQTGGMCTDWLQWLTHRAGRSRTWWAPSVGEQVLILAVGGELDTAFVLPGIYSGDNPSPSVSADALHIRFPDGAVIEYEPETSALTVSGIKTASVTASGSVTATVPVVMVKASTRVTLDTPEVVCTNRLITGTLEVQKGGTMRGNIEHTGGELSSNGKVLHTFKFPGDSGGTTGSPL
B3: the binding result in the series “SEC” is “binds”.

B4: gpVdL-AA (bacteriophage P2 gpV residues 97-211, H197A/H199A) (domain or fragment)
chain: ADALHIRFPDGAVIEYEPETSALTVSGIKTASVTASGSVTATVPVVMVKASTRVTLDTPEVVCTNRLITGTLEVQKGGTMRGNIEHTGGELSSNGKVLHTAKAPGDSGGTTGSPL
Consider B4, for which, in the series “crystal structure”, the “stoichiometry N” value came to 3.

B5: gpVdL-FF (bacteriophage P2 gpV residues 97-211, H197F/H199F) (domain or fragment)
chain: ADALHIRFPDGAVIEYEPETSALTVSGIKTASVTASGSVTATVPVVMVKASTRVTLDTPEVVCTNRLITGTLEVQKGGTMRGNIEHTGGELSSNGKVLHTFKFPGDSGGTTGSPL
With B5, the “stoichiometry N” value in “crystal structure” is 3.

B6: gpV-DEL (bacteriophage P2 gpV with the Apex domain deleted, ends at Thr196 plus an exogenous Leu197) (domain or fragment)
chain: MNTLANIQELARALRNMIRTGIIVETDLNAGRCRVQTGGMCTDWLQWLTHRAGRSRTWWAPSVGEQVLILAVGGELDTAFVLPGIYSGDNPSPSVSADALHIRFPDGAVIEYEPETSALTVSGIKTASVTASGSVTATVPVVMVKASTRVTLDTPEVVCTNRLITGTLEVQKGGTMRGNIEHTGGELSSNGKVLHTL
Take B6: the binding result in the series “SEC” was “binds”.

What is called stoichiometry N is a count of units in the complex or per binding partner.
